The target in this assay is His-UPCP (HIV | human). As to the kind of experiment: MST.

From publication PMC10154249 (2023) come the findings set out here.

B1: Flag-PTBP1 (natural protein)
chain: not shown
In general, Kd refers to the equilibrium constant for the complex coming apart. Lower therefore signals a tighter complex. For the molecule B1, the Kd amounted to 4.63 µM.
